Test results: patent US20260027179A1 (UNIVERSITY OF BRITISH COLUMBIA, published 2026)

Molecular target: T1, Purified recombinant human α-synuclein (N-terminal histidine tagged, Sigma, S7820-500UG) (human, UniProt P37840 1-140)
T1 construct: also called immobilized α-synuclein; not shown: N-terminal histidine tag
Test: Biacore 3000 SPR, α-synuclein immobilized on CM5 chip, peptide 0.20-12.50 µM injected

B1: Tat-βsyn-degron peptide (peptide)
peptide: YGRKKRRQRRRRTKSGVYLVGRRRG
notes: Chemically synthesized by GL Biochem; also called α-synuclein targeting peptide
**Q.** Does B1 bind?
**A.** Result: binds
